B1: Secreted protein BARF1 (Epstein-Barr virus (strain B95-8) (HHV-4)), P03228 (parent)
chain: MARFIAQLLLLASCVAAGQAVTAFLGERVTLTSYWRRVSLGPEIEVSWFKLGPGEEQVLIGRMHHDVIFIEWPFRGFFDIHRSANTFFLVVTAANISHDGNYLCRMKLGETEVTKQEHLSVVKPLTLSVHSERSQFPDFSVLTVTCTVNAFPHPHVQWLMPEGVEPAPTAANGGVMKEKDGSLSVAVDLSLPKPWHLPVTCVGKNDKEEAHGVYVSGYLSQ
partner: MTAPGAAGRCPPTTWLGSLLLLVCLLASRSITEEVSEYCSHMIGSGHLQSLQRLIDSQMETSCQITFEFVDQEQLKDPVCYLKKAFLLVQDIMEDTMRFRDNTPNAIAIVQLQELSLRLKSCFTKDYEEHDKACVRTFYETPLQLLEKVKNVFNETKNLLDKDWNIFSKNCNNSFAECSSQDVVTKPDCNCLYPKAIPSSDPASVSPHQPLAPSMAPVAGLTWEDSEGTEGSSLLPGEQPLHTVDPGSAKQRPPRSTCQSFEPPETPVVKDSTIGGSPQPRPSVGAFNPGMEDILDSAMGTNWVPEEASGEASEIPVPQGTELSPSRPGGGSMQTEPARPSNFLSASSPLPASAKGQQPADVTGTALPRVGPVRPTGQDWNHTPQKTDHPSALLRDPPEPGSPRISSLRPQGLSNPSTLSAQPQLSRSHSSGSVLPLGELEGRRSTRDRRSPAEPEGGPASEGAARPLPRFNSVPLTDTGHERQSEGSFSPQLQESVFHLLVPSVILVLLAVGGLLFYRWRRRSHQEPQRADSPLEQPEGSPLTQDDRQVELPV
B2: Macrophage colony-stimulating factor 1 (Homo sapiens), P09603 (parent)
chain: B1 partner

Variants of: B1
Settings: with csf1_human CSF1, P09603

**Q.** Which “effect of a mutation on the interaction” value does the source give for Y34A;R36A;R37A;V38A;S39A here?
**A.** decreasing interaction strength

**Q.** For Y34A;R36A;R37A;V38A;S39A;R82A;S83A;N85A;T86A, which “effect of a mutation on the interaction” value is on record?
**A.** decreasing interaction strength

Variants of: B2
Settings: with csf1r_human CSF1R

**Q.** Which “effect of a mutation on the interaction” value does the source give for H41A;H47A;Q90A;D91A here?
**A.** decreasing interaction strength

From IntAct's records for PubMed 22902366
